Target: p53 transactivation domain (TAD) (13-61) (human, UniProt P04637 13-61)
Assay: ITC

p53 transactivation domain (TAD) (13-61), sequence (P04637 13-61): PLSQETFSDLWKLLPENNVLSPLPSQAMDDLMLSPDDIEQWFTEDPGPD

dH: 12.3 kcal/mol
stoichiometry N: 1.04
B1: FOXO4 forkhead domain (FHD) (95-195) (domain or fragment)
chain: GSRRNAWGNQSYAELISQAIESAPEKRLTLAQIYEWMVRTVPYFKDKGDSNSSAGWKNSIRHNLSLHSKFIKVHNEATGKSSWWMLNPEGGKSGKAPRRRA
